According to patent US20230227838A1, “ENHANCED CELL SURVIVAL AGAINST BIOTIC AND ABIOTIC STRESSES THROUGH SALICYLICK ACID-INDUCED NPR1 CONDENSATES” (priority 2020, published 2023):
Where a chain is given by its changes, count along the chain named.

B1: sim3: SUMOylation-deficient mutant of NPR1 (protein)
chain: MDTTIDGFADSYEISSTSFVATDNTDSSIVYLAAEQVLTGPDVSALQLLSNSFESVFDSPDDFYSDAKLVLSDGREVSFHRCVLSARSSFFKSALAAAKKEKDSNNTAAVKLELKEIAKDYEVGFDSVVTVLAYVYSSRVRPPPKGVSECADENCCHVACRPAVDFMLEVLYLAFIFKIPELITLYQRHLLDVVDKVVIEDTLVILKLANICGKACMKLLDRCKEIIVKSNVDMVSLEKSLPEELVKEIIDRRKELGLEVPKVKKHVSNVHKALDSDDIELVKLLLKEDHTNLDDACALHFAVAYCNVKTATDLLKLDLADVNHRNPRGYTVLHVAAMRKEPQLAASALEKGASASEATLEGRTALMIAKQATMAVECNNIPEQCKHSLKGRLCVEILEQEDKREQIPRDVPPSFAVAADELKMTLLDLENRVALAQRLFPTEAQAAMEIAEMKGTCEFIVTSLEPDRLTGTKRTSPGVKIAPFRILEEHQSRLKALSKTVELGKRFFPRCSAVLDQIMNCEDLTQLACGEDDTAEKRLQKKQRYMEIQETLKKAFSEDNLELGNSSLTDSTSSTSKSTGGKRSNRKLSHRRR
modifications: left off: small tags and cut ends
notes: SUMOylation-deficient mutant of NPR1
B2: S55/59D: phosphomimic mutant of NPR1 at S55/59 (protein)
chain: B1 chain with S55D, S59D, A345I, A346L, A348L
modifications: left off: small tags and cut ends

system: CUL3; assay: BiFC assay of interaction with CUL3; assay type: cell-based, Arabidopsis thaliana; details: 1 mM SA for 5 hr
Excerpt: Plasmid construction and E. coli-based ubiquitination: The coding sequences for all Arabidopsis genes were amplified from cDNA. Point mutations of AtNPR1 (AT1G64280) were generated using the QuikChange II site-directed mutagenesis kit (Agilent). Overlap PCR was used to generate the deletion/truncation mutations of AtCUL3A (AT1G26830) and AtNPR1. The WT and mutated coding sequences for all genes and gene fusions were sub-cloned into the pDONR207 gateway donor vector and confirmed by sequencing. The obtained entry vectors were recombined into either plant or E. coli destination vectors without or with an N- or C-terminal tag. For in planta expression, genes were recombined into the plant binary vectors pK7FWG2, pSITE-4NB and pLN462 to generate C-terminal eGFP, mCherry and HA fusions, respectively; into pK7WGF2, pEG201, pEG202, pEG203 and pEG204 to generate N-terminal eGFP, HA, FLAG, Myc and V5 fusions, respectively. For co-expression of NPR1 and CUL3 in E. coli, NPR1 or its mutant/truncation variants were first recombined into pDEST15 vector to generate N-terminal GST fusions (GST-NPR1). Next, E. coli-codon-optimized coding sequence of AtCUL3A fused to the Myc tag was amplified from pEG203-CUL3 and inserted between NdeI and XhoI in the MCS-II of pCDFDuet-1 to generate pCDFDuet-1:Myc-CUL3 plasmid. The two plasmids, pDEST15-NPR1 and pCDFDuet-1:Myc-CUL3, were co-transformed into the E. coli strain BL21(DE3) and protein expression was induced with 0.25 mM IPTG for 12 hr at 20° C. For co-expression of NPR1 and EDS1 in E. coli, the coding sequence of AtEDS1 (AT3G48090) fused to FLAG tag was inserted between NcoI and NotI in MCS-I of pETDuet-1 to first generate the pETDuet-1:FLAG-EDS1 plasmid. […] For bimolecular fluorescence complementation (BiFC), entry vectors carrying the coding sequences of genes and their mutant variants were recombined into the pSITE-cEYFP-N1 binary vector for C-terminal fusion with the cYFP half (YC), or into the pSITE-nEYFP-C1 for N-terminal fusion with the nYFP half (YN). […]

Molecule | BiFC signal of interaction with CUL3
NPR1: wild-type Arabidopsis thaliana NPR1 protein, positive regulator of systemic acquired resistance | clear interactions with CUL3 in discrete cytoplasmic condensates
B1 | more intense
B2 | significantly weaker BiFC signal
